This series addresses T1, rYeiE (YeiE-Strep-tag II) (Salmonella enterica serotype Typhimurium ATCC14028s) (UniProt Q8ZNK8).
T1 sequence: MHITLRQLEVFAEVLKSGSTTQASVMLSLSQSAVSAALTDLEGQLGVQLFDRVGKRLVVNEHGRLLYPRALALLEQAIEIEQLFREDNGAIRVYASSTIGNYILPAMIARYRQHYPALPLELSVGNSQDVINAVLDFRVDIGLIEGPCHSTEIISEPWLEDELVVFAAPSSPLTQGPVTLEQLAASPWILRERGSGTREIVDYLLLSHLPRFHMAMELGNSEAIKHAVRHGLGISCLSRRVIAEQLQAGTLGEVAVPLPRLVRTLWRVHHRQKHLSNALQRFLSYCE
The series is described as follows: EMSA. To be noted: 150 mM KCl, 0.1 mM DTT, 0.1 mM EDTA, 10 mM Tris pH 7.4, 20 min at room temperature; 6% native PAGE, SYBR Green. For orientation: Mobility shift assays separate free from complexed probe on a gel.

For “GTTGAACCGCTTTTCAGTACTTCAGCAAACACTTCAAGTTGTCGTAGCGTAATATGCATAGTCGTATCCCACCGATAGCGTTTCACTTACCACTTATAAAGATTAATTATAAATATATAATCAATTTTATTTTTAAACCAGATCACCGTAACCTTATTGTCCATATACAGGAGAAGGTTATGACAGAACTCACCTTGCAGAATCATCGTCGTACAATGTGGCATTTTATACCGGGGCTCGCTCTGAGCGCCGTCATTACAGGAGTCGCCCTGTGGGGCGGCGCTATCCCTGCCGTTGCA (double strand) [PyeiE]”, the binding entry is recorded as “binds”.

Source of the values: article PMC12880088.
